Among the data in the supplement of paper PMC6379048 are EC50 values, retold here.

Experiment in all cases: EC50 of free RNA motif oligo competing protein binding to immobilised probe
For one data set, the target named is T1, RBM47 (UniProt A0AV96).
T1 sequence: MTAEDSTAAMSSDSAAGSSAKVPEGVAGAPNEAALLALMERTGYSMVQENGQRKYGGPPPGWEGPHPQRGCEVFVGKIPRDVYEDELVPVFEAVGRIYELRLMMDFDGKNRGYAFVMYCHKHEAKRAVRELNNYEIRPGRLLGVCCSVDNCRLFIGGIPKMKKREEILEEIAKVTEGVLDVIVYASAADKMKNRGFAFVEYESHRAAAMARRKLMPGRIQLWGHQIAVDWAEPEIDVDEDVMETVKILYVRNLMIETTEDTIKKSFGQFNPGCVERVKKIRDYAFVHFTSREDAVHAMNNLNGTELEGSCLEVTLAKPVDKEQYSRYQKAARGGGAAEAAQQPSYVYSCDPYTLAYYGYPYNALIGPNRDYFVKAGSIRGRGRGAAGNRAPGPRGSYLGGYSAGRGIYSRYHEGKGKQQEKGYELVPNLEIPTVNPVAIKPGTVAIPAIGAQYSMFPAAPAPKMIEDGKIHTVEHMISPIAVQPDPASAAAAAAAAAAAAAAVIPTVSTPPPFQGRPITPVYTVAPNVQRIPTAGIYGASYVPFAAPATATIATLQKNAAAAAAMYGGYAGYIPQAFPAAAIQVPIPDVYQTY
A digest of the protocol:
(§1)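 HEK293-FT lysate (2.5 mg protein/well) was pre-incubated 1 h at 4°C with free RNA oligos (0 nM to 30 μM), then 30 min at 4°C with the same 5′-amino-C6 oligos coupled to NHS-Sepharose beads. Bound proteins were quantified by label-free LC-MS/MS in three biological replicates and two independent experiments, and normalised to the water control. EC50 came from a four-parameter log-logistic fit; Kd is EC50 times a protein-dependent depletion factor.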

The target in the next data set is T2, PABPN1 (UniProt Q86U42).
T2 sequence: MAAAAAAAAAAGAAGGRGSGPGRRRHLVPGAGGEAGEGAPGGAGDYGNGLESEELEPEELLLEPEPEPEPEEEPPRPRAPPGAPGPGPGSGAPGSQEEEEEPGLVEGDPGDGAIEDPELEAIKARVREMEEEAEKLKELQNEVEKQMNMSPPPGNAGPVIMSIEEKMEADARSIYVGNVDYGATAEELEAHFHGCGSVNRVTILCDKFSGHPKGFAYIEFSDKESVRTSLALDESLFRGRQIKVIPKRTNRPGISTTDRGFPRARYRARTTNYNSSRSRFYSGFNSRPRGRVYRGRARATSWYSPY
The method in brief:
as §1

A further data set deals with P4HA2 (UniProt O15460). A digest of the protocol: as §1
In another data set the target is RPS17 (UniProt P08708). The method in brief:
as §1

For the next data set, the target named is T3, SRSF4 (UniProt Q08170).
T3 sequence: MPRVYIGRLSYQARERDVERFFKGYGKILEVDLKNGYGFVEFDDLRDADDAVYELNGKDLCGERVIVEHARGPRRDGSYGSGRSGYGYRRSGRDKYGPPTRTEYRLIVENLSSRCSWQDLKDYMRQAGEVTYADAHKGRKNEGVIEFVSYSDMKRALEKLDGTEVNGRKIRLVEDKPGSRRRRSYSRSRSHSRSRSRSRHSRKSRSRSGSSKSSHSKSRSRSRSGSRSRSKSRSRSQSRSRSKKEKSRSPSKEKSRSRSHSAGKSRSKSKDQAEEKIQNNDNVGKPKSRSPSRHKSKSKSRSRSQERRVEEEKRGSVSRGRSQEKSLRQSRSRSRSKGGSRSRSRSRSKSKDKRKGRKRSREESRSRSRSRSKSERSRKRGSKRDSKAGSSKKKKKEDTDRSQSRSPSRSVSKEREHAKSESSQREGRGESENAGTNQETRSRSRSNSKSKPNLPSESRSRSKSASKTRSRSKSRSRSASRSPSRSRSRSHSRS
The method in brief:
as §1

Another data set concerns the target MRPL14 (UniProt Q6P1L8). The method in brief:
as §1

The target of the next data set is DAP3 (UniProt P51398). The method in brief:
as §1

Chain of P4HA2 (O15460 whole entry): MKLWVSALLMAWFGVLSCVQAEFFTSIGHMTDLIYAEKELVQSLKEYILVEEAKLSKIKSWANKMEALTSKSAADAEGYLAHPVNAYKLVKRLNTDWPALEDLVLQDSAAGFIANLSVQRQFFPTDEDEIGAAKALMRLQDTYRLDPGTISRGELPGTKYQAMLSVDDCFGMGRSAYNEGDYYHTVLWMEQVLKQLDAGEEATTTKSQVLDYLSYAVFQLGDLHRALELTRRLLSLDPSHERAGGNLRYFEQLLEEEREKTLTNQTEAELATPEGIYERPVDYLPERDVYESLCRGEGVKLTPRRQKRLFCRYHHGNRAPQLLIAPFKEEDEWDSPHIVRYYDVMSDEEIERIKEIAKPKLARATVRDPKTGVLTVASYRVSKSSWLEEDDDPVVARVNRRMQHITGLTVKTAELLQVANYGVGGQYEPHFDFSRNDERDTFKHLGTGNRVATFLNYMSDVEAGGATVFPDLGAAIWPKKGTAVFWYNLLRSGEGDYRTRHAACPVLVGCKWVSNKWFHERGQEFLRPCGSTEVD

In the case of AAUAAA, the EC50 with RBM47 is 3.73 µM; with PABPN1, 3.52 µM; in the data set with P4HA2 it was 0.0389 µM; in the data set with RPS17, 0.128 µM.
Regarding CUGUCCU, the concentration giving a half-maximal response (EC50) was 0.978 µM with SRSF4 and 0.104 µM with MRPL14.
UAUUUAU had an EC50 with DAP3 of 0.0514 µM.
